The labels stand for the following.
B1: SMTNL2 (parent)
chain: AFTMAENLANCERLIEVEDMMVMG
B2: TBC1D10A (parent)
chain: WCLVQICEKYLPGYYSEKLEAIQL
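Also: lentivirally expressed fusions sorted by FACS into six bins by GFP to DsRed ratio, PSI derived from sequencing read proportions per bin multiplied by bin number.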

Variants of B1 are the subject of the first series. Description: protein stability index of a GFP-peptide fusion (GPS, HEK-293T) (PSI 1-6); higher = more stable. To be noted: c terminus: a fixed tail appended.
Take APTMAENLANCERLIEVEDMMVMG [F2P]: the protein stability index turned out to be 4.28.
Still for that read-out and setting: as for AITMAENLANCERLIEVEDMMVMG [F2I], the figure is 2.27.
Same read-out and setting: as for ASTMAENLANCERLIEVEDMMVMG [F2S], the figure is 3.49.
As for AYTMAENLANCERLIEVEDMMVMG [F2Y], the protein stability index stood at 2.22.
Same read-out and setting: as for AWTMAENLANCERLIEVEDMMVMG [F2W], the figure is 2.07.
Same read-out and setting: as for AATMAENLANCERLIEVEDMMVMG [F2A], the figure is 3.7; as for AVTMAENLANCERLIEVEDMMVMG [F2V], 3.18.
The same measure, in the same setting: as for ATTMAENLANCERLIEVEDMMVMG [F2T], the figure is 3.88; as for AKTMAENLANCERLIEVEDMMVMG [F2K], 3.5.
On to AGTMAENLANCERLIEVEDMMVMG [F2G], for which the protein stability index was determined as 4.
Consider ALTMAENLANCERLIEVEDMMVMG [F2L], for which the protein stability index was 2.27.
For the variant AETMAENLANCERLIEVEDMMVMG [F2E], the protein stability index came out at 4.17.
For ARTMAENLANCERLIEVEDMMVMG [F2R], the protein stability index came to 2.4.
Consider ACTMAENLANCERLIEVEDMMVMG [F2C], for which the protein stability index amounted to 3.14.
Take AQTMAENLANCERLIEVEDMMVMG [F2Q]: the protein stability index worked out at 3.22.
With ANTMAENLANCERLIEVEDMMVMG [F2N], the protein stability index was 3.95.
The same measure, in the same setting: as for AHTMAENLANCERLIEVEDMMVMG [F2H], the figure is 3.48; as for ADTMAENLANCERLIEVEDMMVMG [F2D], 4.48.
Still for that read-out and setting: as for AMTMAENLANCERLIEVEDMMVMG [F2M], the figure is 2.08; as for AFTFAENLANCERLIEVEDMMVMG [M4F], 2.51; as for AFTKAENLANCERLIEVEDMMVMG [M4K], 3.77.
Same read-out and setting: as for AFTHAENLANCERLIEVEDMMVMG [M4H], the figure is 3.81; as for AFTAAENLANCERLIEVEDMMVMG [M4A], 4.14; as for AFTIAENLANCERLIEVEDMMVMG [M4I], 2.96.
AFTEAENLANCERLIEVEDMMVMG [M4E]: the protein stability index was found to be 4.4.
The same measure, in the same setting: as for AFTYAENLANCERLIEVEDMMVMG [M4Y], the figure is 3.13; as for AFTPAENLANCERLIEVEDMMVMG [M4P], 3.74.
The same measure, in the same setting: as for AFTRAENLANCERLIEVEDMMVMG [M4R], the figure is 3.22; as for AFTTAENLANCERLIEVEDMMVMG [M4T], 3.78.
On to AFTQAENLANCERLIEVEDMMVMG [M4Q], for which the protein stability index stood at 4.04.
As for AFTCAENLANCERLIEVEDMMVMG [M4C], the protein stability index was found to be 3.13.
Consider AFTWAENLANCERLIEVEDMMVMG [M4W], for which the protein stability index came out at 2.27.
Same read-out and setting: as for AFTVAENLANCERLIEVEDMMVMG [M4V], the figure is 3.18; as for AFTLAENLANCERLIEVEDMMVMG [M4L], 1.63; as for AFTDAENLANCERLIEVEDMMVMG [M4D], 4.08.
The same measure, in the same setting: as for AFTGAENLANCERLIEVEDMMVMG [M4G], the figure is 4.19.
With AFTSAENLANCERLIEVEDMMVMG [M4S], the protein stability index turned out to be 4.04.
On the same count and under the same terms, as for AFTNAENLANCERLIEVEDMMVMG [M4N], the figure is 3.76; as for AFTMSENLANCERLIEVEDMMVMG [A5S], 2.55.
On the same count and under the same terms, as for AFTMTENLANCERLIEVEDMMVMG [A5T], the figure is 2.83; as for AFTMRENLANCERLIEVEDMMVMG [A5R], 1.93.
The same measure, in the same setting: as for AFTMGENLANCERLIEVEDMMVMG [A5G], the figure is 3.11.
For the variant AFTMDENLANCERLIEVEDMMVMG [A5D], the protein stability index came out at 3.78.
On the same count and under the same terms, as for AFTMKENLANCERLIEVEDMMVMG [A5K], the figure is 2.51.
In the case of AFTMHENLANCERLIEVEDMMVMG [A5H], the protein stability index turned out to be 2.01.
On to AFTMEENLANCERLIEVEDMMVMG [A5E], for which the protein stability index was found to be 4.16.
For AFTMWENLANCERLIEVEDMMVMG [A5W], the protein stability index was found to be 1.81.
Still for that read-out and setting: as for AFTMNENLANCERLIEVEDMMVMG [A5N], the figure is 2.7; as for AFTMCENLANCERLIEVEDMMVMG [A5C], 2.27; as for AFTMIENLANCERLIEVEDMMVMG [A5I], 3.19.
The same measure, in the same setting: as for AFTMMENLANCERLIEVEDMMVMG [A5M], the figure is 2.58; as for AFTMLENLANCERLIEVEDMMVMG [A5L], 2.48.
The same measure, in the same setting: as for AFTMQENLANCERLIEVEDMMVMG [A5Q], the figure is 2.05; as for AFTMVENLANCERLIEVEDMMVMG [A5V], 2.03.
For AFTMYENLANCERLIEVEDMMVMG [A5Y], the protein stability index worked out at 2.71.
Take AFTMPENLANCERLIEVEDMMVMG [A5P]: the protein stability index was found to be 3.44.
Turning to AFTMFENLANCERLIEVEDMMVMG [A5F], the protein stability index is 2.07.

In a further series the parent is B2. The description is as above. To be noted: c terminus: a fixed tail appended.
With WCLVQICEKYLPGYYSEKLEAVQL [I22V], the protein stability index was determined as 3.09.
On the same count and under the same terms, as for PCLVQICEKYLPGYYSEKLEAIQL [W1P], the figure is 1.93; as for ACLVQICEKYLPGYYSEKLEAIQL [W1A], 3.88.
In the case of FCLVQICEKYLPGYYSEKLEAIQL [W1F], the protein stability index stood at 2.61.
Turning to WCLVQICEKYLPGYYSMKLEAIQL [E17M], the protein stability index was 3.65.
Turning to WCLVQICEKYLPGYYSEKLEAIQW [L24W], the protein stability index was 2.98.
Same read-out and setting: as for WCLVQICEKYLPGYYSEKLEAIQF [L24F], the figure is 3.24; as for WCLVQICEKYLPGYYSEKLIAIQL [E20I], 2.3.
Consider WCLVQICEKYLPGYYSEKLQAIQL [E20Q], for which the protein stability index was 2.79.
With WCLVQICEKYLPGYYSEKLKAIQL [E20K], the protein stability index was 3.35.
Same read-out and setting: as for WSLVQICEKYLPGYYSEKLEAIQL [C2S], the figure is 1.67.
On the same count and under the same terms, as for WCLVQICEKYLPGEYSEKLEAIQL [Y14E], the figure is 1.59; as for WCLVQICTKYLPGYYSEKLEAIQL [E8T], 2.34; as for WCLVQICLKYLPGYYSEKLEAIQL [E8L], 4.41.
WCLVQICEKMLPGYYSEKLEAIQL [Y10M]: the protein stability index was found to be 3.09.
The same measure, in the same setting: as for WCLLQICEKYLPGYYSEKLEAIQL [V4L], the figure is 2.19.
On the same count and under the same terms, as for WCLEQICEKYLPGYYSEKLEAIQL [V4E], the figure is 2.09.
Same read-out and setting: as for WCLVQPCEKYLPGYYSEKLEAIQL [I6P], the figure is 2.45.
For the variant WCLVQICETYLPGYYSEKLEAIQL [K9T], the protein stability index worked out at 3.21.
As to WCLVQICEIYLPGYYSEKLEAIQL [K9I], the protein stability index amounted to 3.29.
On the same count and under the same terms, as for WCLVQICEKYLPGYYDEKLEAIQL [S16D], the figure is 2.24; as for WCLVQICEKYLSGYYSEKLEAIQL [P12S], 3.84.
On to WCLVQICEKYLIGYYSEKLEAIQL [P12I], for which the protein stability index amounted to 2.32.
Still for that read-out and setting: as for WCLVQICEKYLPGYYSEKLEAIAL [Q23A], the figure is 4.11; as for WCLVQICEKYLPGYYSEKLEAIPL [Q23P], 1.64; as for WCLVQICEKYLPGYYSEMLEAIQL [K18M], 2.98.
For WCLVQICEKYLPGYYSERLEAIQL [K18R], the protein stability index worked out at 2.22.
As to WCLVQICEKYLPGYYSELLEAIQL [K18L], the protein stability index was determined as 1.83.
WCLVQICEKYLPGYYSEVLEAIQL [K18V]: the protein stability index was 3.17.
WCLVQICEKYPPGYYSEKLEAIQL [L11P]: the protein stability index was 3.62.
Take WCLVQICEKYDPGYYSEKLEAIQL [L11D]: the protein stability index was 2.91.
Same read-out and setting: as for WCLVQICEKYLPEYYSEKLEAIQL [G13E], the figure is 3.01.
Still for that read-out and setting: as for WCLVQICEKYLPYYYSEKLEAIQL [G13Y], the figure is 5.24; as for WCLVQICEKYLPIYYSEKLEAIQL [G13I], 1.54; as for WCMVQICEKYLPGYYSEKLEAIQL [L3M], 2.45.
Consider WCSVQICEKYLPGYYSEKLEAIQL [L3S], for which the protein stability index came out at 1.88.
Same read-out and setting: as for WCTVQICEKYLPGYYSEKLEAIQL [L3T], the figure is 4.55.

These data come from the supplement of paper PMC10567573.
